Test results taken from publication PMC5165203, “The Cellular DNA Helicase ChlR1 Regulates Chromatin and Nuclear Matrix Attachment of the Human Papillomavirus 16 E2 Protein and High-Copy-Number Viral Genome Establishment” (Journal of Virology, 2016).
Where a chain is given by its changes, count along the chain named. Names may count otherwise.

T1: His-ChlR1 63-214 (human, UniProt Q96FC9 63-214)
T1 construct: DNA helicase ChlR1, human, amino acids 63 to 214, cloned from pCMV-FLAG-ChlR1 into pHIS-TEV; Vector pHIS-TEV (NcoI/EcoRI); held on nickel resin by the hexahistidine tag in the pull-down; also called ChlR1 63-214 peptide
T1 sequence (looked up): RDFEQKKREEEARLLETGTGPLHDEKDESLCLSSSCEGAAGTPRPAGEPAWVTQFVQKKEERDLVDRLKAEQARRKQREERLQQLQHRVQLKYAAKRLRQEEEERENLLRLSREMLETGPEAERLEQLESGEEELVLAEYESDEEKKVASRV

B1: HPV16 E2 D124A mutant (natural protein)
chain: METLCQRLNVCQDKILTHYENDSTDLRDHIDYWKHMRLECAIYYKAREMGFKHINHQVVPTLAVSKNKALQAIELQLTLETIYNSQYSNEKWTLQDVSLEVYLTAPTGCIKKHGYTVEVQFDGAICNTMHYTNWTHIYICEEASVTVVEGQVDYYGLYYVHEGIRTYFVQFKDDAEKYSKNKVWEVHAGGQVILCPTSVFSSNEVSSPEIIRQHLANHPAATHTKAVALGTEETQTTIQRPRSEPDTGNPCHTTKLLHRDSVDSAPILTAFNSSHKGRINCNSNTTPIVHLKGDANTLKCLRYRFKKHCTLYTAVSSTWHWTGHNVKHKSAIVTLTYDSEWQRDQFLSQVKIPKTITVSTGFMSI
notes: E2 protein of human papillomavirus 16, from pCMV-16E2 by site-directed mutagenesis; source: C33a cells, transfected (mutated pCMV-16E2), in lysate
B2: HPV16 E2 H130R mutant (natural protein)
chain: B1 chain with A124D, H130R
notes: as for B1
B3: HPV16 E2 D173A mutant (natural protein)
chain: B1 chain with A124D, D173A
notes: as for B1
B4: HPV16 E2 K177A mutant (natural protein)
chain: B1 chain with A124D, K177A
notes: as for B1
B5: HPV16 E2 Y131A mutant (natural protein)
chain: B1 chain with A124D, Y131A
notes: as for B1
B6: HPV16 E2 E118A mutant (natural protein)
chain: B1 chain with E118A, A124D
notes: as for B1

Target: T1, His-ChlR1 63-214
Test: pull-down; His-ChlR1 1-130 or His-ChlR1 63-214 immobilised on nickel resin, incubated with cleared whole-cell lysate of E2-transfected C33a cells for 16 h at 4°C; bound E2 by Western blotting, densitometry against input
Details: one partner purified

First: B1
Second: B2
The “% E2 bound (in comparison to the E2^WT binding level)” value (“% E2 bound” below) of the first is lower: 38.8% for the first, 45.2% for the second.

First: B3
Second: B4
The “% E2 bound” value of the first is higher: 80.5% for the first, 36.3% for the second.

Going from B5 to B6, the “% E2 bound” value rises from 5.43% to 107%.
